Results: PMC3156243, “Properties and Crystal Structure of Methylenetetrahydrofolate Reductase from Thermus thermophilus HB8” (PLoS ONE, 2011)

How the values were obtained:
Assay in all cases: purified protein
purified protein [1] = substrate: Cc1cc2nc3c(=O)[nH]c(=O)nc-3n(C[C@H](O)[C@H](O)[C@H](O)COP(=O)(O)OP(=O)(O)OC[C@H]3O[C@@H](n4cnc5c(N)ncnc54)[C@H](O)[C@@H]3O)c2cc1C; details: active center of the β[…]α[…] barrel; Glu18 near the si-face of the isoalloxazine ring, Asp109 near C2; non-covalently bound; varied: cofactor
purified protein [2] = substrate: Nc1nc2c(c(=O)[nH]1)N1CN(c3ccc(C(=O)N[C@@H](CCC(=O)O)C(=O)O)cc3)C[C@H]1CN2; details: FAD; 50.0 °C
purified protein [3] = substrate: NC(=O)C1=CN([C@@H]2O[C@H](COP(=O)(O)OP(=O)(O)OC[C@H]3O[C@@H](n4cnc5c(N)ncnc54)[C@H](O)[C@@H]3O)[C@@H](O)[C@H]2O)C=CC1; details: FAD; 25.0 °C

B1: MTHFR (methylenetetrahydrofolate reductase) (Thermus thermophilus HB8) (protein)
chain: MKIRDLLKARRGPLFSFEFFPPKDPEGEEALFRTLEELKAFRPAFVSITYGAMGSTRERSVAWAQRIQSLGLNPLAHLTVAGQSRKEVAEVLHRFVESGVENLLALRGDPPRGERVFRPHPEGFRYAAELVALIRERYGDRVSVGGAAYPEGHPESESLEADLRHFKAKVEAGLDFAITQLFFNNAHYFGFLERARRAGIGIPILPGIMPVTSYRQLRRFTEVCGASIPGPLLAKLERHQDDPKAVLEIGVEHAVRQVAELLEAGVEGVHFYTLNKSPATRMVLERLGLRPASGQP
- Km (purified protein [1]): 5 µM
- Km (purified protein [2]): 180 ± 23 µM
- Km (purified protein [3]): 9.7 ± 2.1 µM
